Results taken from patent US20170355730.

T1: cFΦR4-PCP (not fully specified)
T1 chain: FXRRRRQXDEXLI

T2: Antp-PCP
T2 chain: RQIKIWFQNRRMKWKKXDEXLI

T3: R9-PCP
T3 chain: RRRRRRRRRXDEXLI

B1: TCPTP (protein)
chain: MPTTIEREFEELDTQRRWQPLYLEIRNESHDYPHRVAKFPENRNRNRYRDVSPYDHSRVKLQNAENDYINASLVDIEEAQRSYILTQGPLPNTCCHFWLMVWQQKTKAVVMLNRIVEKESVKCAQYWPTDDQEMLFKETGFSVKLLSEDVKSYYTVHLLQLENINSGETRTISHFHYTTWPDFGVPESPASFLNFLFKVRESGSLNPDHGPAVIHCSAGIGRSGTFSLVDTCLVLMEKGDDINIKQVLLNMRKYRMGLIQTPDQLRFSYMAIIEGAKCIKGDSSIQKRWKELSKEDLSPAFDHSPNKIMTEKYN
B2: PTP1B (construct not stated) (protein)
chain: MEMEKEFEQIDKSGSWAAIYQDIRHEASDFPCRVAKLPKNKNRNRYRDVSPFDHSRIKLHQEDNDYINASLIKMEEAQRSYILTQGPLPNTCGHFWEMVWEQKSRGVVMLNRVMEKGSLKCAQYWPQKEEKEMIFEDTNLKLTLISEDIKSYYTVRQLELENLTTQETREILHFHYTTWPDFGVPESPASFLNFLFKVRESGSLSPEHGPVVVHCSAGIGRSGTFCLADTCLLLMDKRKDPSSVDIKKVLLEMRKFRMGLIQTADQLRFSYLAVIEGAKFIMGDSSVQDQWKELSHEDLEPPPEHIPPPPRPPKRILEPHN
B3: CD45 (protein)
chain: YKIYDLHKKRSCNLDEQQELVERDDEKQLMNVEPIHADILLETYKRKIADEGRLFLAEFQSIPRVFSKFPIKEARKPFNQNKNRYVDILPYDYNRVELSEINGDAGSNYINASYIDGFKEPRKYIAAQGPRDETVDDFWRMIWEQKATVIVMVTRCEEGNRNKCAEYWPSMEEGTRAFGDVVVKINQHKRCPDYIIQKLNIVNKKEKATGREVTHIQFTSWPDHGVPEDPHLLLKLRRRVNAFSNFFSGPIVVHCSAGVGRTGTYIGIDAMLEGLEAENKVDVYGYVVKLRRQRCLMVQVEAQYILIHQALVEYNQFGETEVNLSELHPYLHNMKKRDPPSEPSPLEAEFQRLPSYRSWRTQHIGNQEENKSKNRNSNVIPYDYNRVPLKHELEMSKESEHDSDESSDDDSDSEEPSKYINASFIMSYWKPEVMIAAQGPLKETIGDFWQMIFQRKVKVIVMLTELKHGDQEICAQYWGEGKQTYGDIEVDLKDTDKSSTYTLRVFELRHSKRKDSRTVYQYQYTNWSVEQLPAEPKELISMIQVVKQKLPQKNSSEGNKHHKSTPLLIHCRDGSQQTGIFCALLNLLESAETEEVVDIFQVVKALRKARPGMVSTFEQYQFLYDVIASTYPAQNGQVKKNNHQEDKIEFDNEVDKVKQDANCVNPLGAPEKLPEAKEQAEGSEPTSGTEGPEHSVNGPASPALNQGS
B4: VHR (protein)
chain: MSGSFELSVQDLNDLLSDGSGCYSLPSQPCNEVTPRIYVGNASVAQDIPKLQKLGITHVLNAAEGRSFMHVNTNANFYKDSGITYLGIKANDTQEFNLSAYFERAADFIDQALAQKNGRVLVHCREGYSRSPTLVIAYLMMRQKMDVKSALSIVRQNREIGPNDGFLAQLCQLNDRLAKEGKLKP
B5: SHP2 (protein)
chain: AEIESRVRELSKLAETTDKVKQGFWEEFETLQQQECKLLYSRKEGQRQENKNKNRYKNILPFDHTRVVLHDGDPNEPVSDYINANIIMPEFETKCNNSKPKKSYIATQGCLQNTVNDFWRMVFQENSRVIVMTTKEVERGKSKCVKYWPDEYALKEYGVMRVRNVKESAAHDYTLRELKLSKVGQGNTERTVWQYHFRTWPDHGVPSDPGGVLDFLEEVHHKQESIMDAGPVVVHCSAGIGRTGTFIVIDILIDIIREKGVDCDIDVPKTIQMVRSQRSGMVQTEAQYRFIYMAVQHYIETLQRR

Assays:
cFΦR4-PCP = molecular target: T1, cFΦR4-PCP
Antp-PCP = molecular target: T2, Antp-PCP
R9-PCP = molecular target: T3, R9-PCP

Row | Protein | kcat/KM (cFΦR4-PCP) | kcat/KM (Antp-PCP) | kcat/KM (R9-PCP)
1 | B1 | 2780 M⁻¹ s⁻¹ | 970 M⁻¹ s⁻¹ | 457 M⁻¹ s⁻¹
2 | B2 | 37100 M⁻¹ s⁻¹ | 17400 M⁻¹ s⁻¹ | 14700 M⁻¹ s⁻¹
3 | B3 | 35100 M⁻¹ s⁻¹ | 22300 M⁻¹ s⁻¹ | 2940 M⁻¹ s⁻¹
4 | B4 | 2460 M⁻¹ s⁻¹ | 2030 M⁻¹ s⁻¹ | 6240 M⁻¹ s⁻¹
5 | B5 | 7400 M⁻¹ s⁻¹ | 2210 M⁻¹ s⁻¹ | 248 M⁻¹ s⁻¹
